Laboratory results as given in article PMC2734569, “Functional mapping of the fission yeast DNA polymerase δ B-subunit Cdc1 by site-directed and random pentapeptide insertion mutagenesis” (BMC Molecular Biology, 2009).

What was measured:
[1] = target: T1, Cdc1 (fission yeast DNA polymerase delta B-subunit), wild type (Schizosaccharomyces pombe, UniProt P87324 1-462); experiment: two-hybrid; LexA-Cdc1 bait (pBTM116 or pBTM116BN) with Gal4-Pol3 prey and co-expressed c-myc-tagged Cdc27 (pAA-Cdc27) in S. cerevisiae CTY10-5d; ONPG liquid culture beta-galactosidase assay, mean of triplicates, as percent of wild-type Cdc1; conditions: partners not purified
T1 construct: DNA polymerase delta B-subunit Cdc1, S. pombe; cdc1+ cDNA on a 1.5 kb BamHI fragment from pBTM116-Cdc1, ORF 1386 bp; also called WT; LexA-Cdc1; source: yeast two-hybrid fusion, in S. cerevisiae CTY10-5d
T1 sequence (looked up): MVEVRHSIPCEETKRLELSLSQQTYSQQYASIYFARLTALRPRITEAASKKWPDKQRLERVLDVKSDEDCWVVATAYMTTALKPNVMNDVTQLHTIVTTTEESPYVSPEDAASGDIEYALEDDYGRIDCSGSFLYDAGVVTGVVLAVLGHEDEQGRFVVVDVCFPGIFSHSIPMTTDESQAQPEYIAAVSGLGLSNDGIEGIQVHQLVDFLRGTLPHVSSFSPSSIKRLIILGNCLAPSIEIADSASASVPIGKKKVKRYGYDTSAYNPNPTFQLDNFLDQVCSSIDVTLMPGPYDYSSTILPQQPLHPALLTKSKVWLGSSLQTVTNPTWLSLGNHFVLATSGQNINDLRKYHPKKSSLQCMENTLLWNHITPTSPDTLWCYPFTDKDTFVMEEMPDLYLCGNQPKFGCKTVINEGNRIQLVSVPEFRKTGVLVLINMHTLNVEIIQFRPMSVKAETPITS

Cdc1-J4 = target: T2, Cdc1-J4 (Schizosaccharomyces pombe, UniProt P87324 1-462, Ile-GlyValProArgIle-Asp); experiment: as above; conditions: partners not purified
T2 construct: Cdc1, S. pombe, with a pentapeptide inserted after residue 127; also called J5; J13; source: yeast two-hybrid fusion, in S. cerevisiae CTY10-5d
T2 sequence (looked up): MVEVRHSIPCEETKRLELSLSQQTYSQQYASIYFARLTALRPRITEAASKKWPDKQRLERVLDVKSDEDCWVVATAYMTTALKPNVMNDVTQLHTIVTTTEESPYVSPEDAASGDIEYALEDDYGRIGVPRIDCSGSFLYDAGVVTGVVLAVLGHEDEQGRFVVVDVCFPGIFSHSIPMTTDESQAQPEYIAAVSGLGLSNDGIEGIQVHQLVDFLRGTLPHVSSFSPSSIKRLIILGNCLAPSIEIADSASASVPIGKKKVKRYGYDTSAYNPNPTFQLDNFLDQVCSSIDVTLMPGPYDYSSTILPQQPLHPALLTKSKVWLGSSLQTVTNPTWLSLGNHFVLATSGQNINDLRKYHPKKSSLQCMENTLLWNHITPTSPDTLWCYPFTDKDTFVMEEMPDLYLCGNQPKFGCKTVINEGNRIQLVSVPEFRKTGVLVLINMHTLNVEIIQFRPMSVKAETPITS

two-hybrid beta-galactosidase activity, % of wild-type Cdc1 [1]: 100%
two-hybrid beta-galactosidase activity, % of wild-type Cdc1 (Cdc1-J4): 36%
B1: Pol3 (fission yeast DNA polymerase delta catalytic subunit) (natural protein, Schizosaccharomyces pombe, UniProt P30316 1-1086, looked up)
chain: MTDRSSNEGVVLNKENYPFPRRNGSIHGEITDVKRRRLSERNGYGDKKGSSSKEKTSSFEDELAEYASQLDQDEIKSSKDQQWQRPALPAINPEKDDIYFQQIDSEEFTEGSVPSIRLFGVTDNGNSILVHVVGFLPYFYVKAPVGFRPEMLERFTQDLDATCNGGVIDHCIIEMKENLYGFQGNEKSPFIKIFTTNPRILSRARNVFERGEFNFEELFPVGVGVTTFESNTQYLLRFMIDCDVVGMNWIHLPASKYQFRYQNRVSNCQIEAWINYKDLISLPAEGQWSKMAPLRIMSFDIECAGRKGVFPDPSIDPVIQIASIVTQYGDSTPFVRNVFCVDTCSQIVGTQVYEFQNQAEMLSSWSKFVRDVDPDVLIGYNICNFDIPYLLDRAKSLRIHNFPLLGRIHNFFSVAKETTFSSKAYGTRESKTTSIPGRLQLDMLQVMQRDFKLRSYSLNAVCSQFLGEQKEDVHYSIITDLQNGTADSRRRLAIYCLKDAYLPQRLMDKLMCFVNYTEMARVTGVPFNFLLARGQQIKVISQLFRKALQHDLVVPNIRVNGTDEQYEGATVIEPIKGYYDTPIATLDFSSLYPSIMQAHNLCYTTLLDSNTAELLKLKQDVDYSVTPNGDYFVKPHVRKGLLPIILADLLNARKKAKADLKKETDPFKKAVLDGRQLALKVSANSVYGFTGATNGRLPCLAISSSVTSYGRQMIEKTKDVVEKRYRIENGYSHDAVVIYGDTDSVMVKFGVKTLPEAMKLGEEAANYVSDQFPNPIKLEFEKVYFPYLLISKKRYAGLFWTRTDTYDKMDSKGIETVRRDNCPLVSYVIDTALRKMLIDQDVEGAQLFTKKVISDLLQNKIDMSQLVITKALSKTDYAAKMAHVELAERMRKRDAGSAPAIGDRVAYVIIKGAQGDQFYMRSEDPIYVLENNIPIDAKYYLENQLSKPLLRIFEPILGEKASSLLHGDHTRTISMAAPSVGGIMKFAVKVETCLGCKAPIKKGKTALCENCLNRSAELYQRQVAQVNDLEVRFARLWTQCQRCQGSMHQDVICTSRDCPIFYMRIAEHKKLQQSVDLLKRFDEMSW
notes: DNA polymerase delta catalytic subunit Pol3, S. pombe; prey plasmid named pACT-Pol3 in the results and pGAD2F-Pol3 in the methods; also called Gal4-Pol3; pACT-Pol3; source: yeast two-hybrid fusion, in S. cerevisiae CTY10-5d
